The record followed here is publication PMC11996676.

This assay has as its target aPKCι kinase domain (residues 248–596), fully primed (human), P41743. The experiment in a line: fluorescence polarisation; fluorescence anisotropy; Llgl1 P-site peptide and aPKCι kinase domain (2P, pT412 and pT564); apparent Kd.

aPKCι kinase domain (residues 248–596), fully primed (human), P41743, sequence (P41743 248-596): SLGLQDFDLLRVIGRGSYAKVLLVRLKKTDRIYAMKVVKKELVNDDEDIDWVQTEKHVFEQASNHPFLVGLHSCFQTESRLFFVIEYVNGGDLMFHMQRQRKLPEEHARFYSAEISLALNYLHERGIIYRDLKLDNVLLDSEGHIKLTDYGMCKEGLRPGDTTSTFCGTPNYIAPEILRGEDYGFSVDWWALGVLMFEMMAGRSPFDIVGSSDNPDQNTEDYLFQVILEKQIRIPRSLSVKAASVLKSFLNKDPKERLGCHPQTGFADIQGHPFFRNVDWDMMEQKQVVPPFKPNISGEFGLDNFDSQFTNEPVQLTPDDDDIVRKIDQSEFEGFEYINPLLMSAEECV

As to LAMEGPLSRVKSLKKSLRQSFRRIRKSRV (modifications not checked) [Llgl1 P-site peptide], the Kd was determined as 48 nM.
